Changes are numbered by the printed parent chain. In names and notes the source's numbering stands.
How the values were obtained:
[1] = biological target: T1, DrRecA (Deinococcus radiodurans R1 (ATCC 13939), UniProt P42443 1-363); assay: EMSA; no PprA; DrRecA 0.5-2 ug; EMSA: 0.2 pmol 32P probe in 10 ul, 10 mM Tris-HCl pH 7.5, 50 mM NaCl, 1 mM DTT, 10 min, 37 C; 12.5% native PAGE; details: protein: recombinant, tags: His-tag removed with Factor Xa (pET28a), label: 32P (polynucleotide kinase, 5' end)
T1 sequence: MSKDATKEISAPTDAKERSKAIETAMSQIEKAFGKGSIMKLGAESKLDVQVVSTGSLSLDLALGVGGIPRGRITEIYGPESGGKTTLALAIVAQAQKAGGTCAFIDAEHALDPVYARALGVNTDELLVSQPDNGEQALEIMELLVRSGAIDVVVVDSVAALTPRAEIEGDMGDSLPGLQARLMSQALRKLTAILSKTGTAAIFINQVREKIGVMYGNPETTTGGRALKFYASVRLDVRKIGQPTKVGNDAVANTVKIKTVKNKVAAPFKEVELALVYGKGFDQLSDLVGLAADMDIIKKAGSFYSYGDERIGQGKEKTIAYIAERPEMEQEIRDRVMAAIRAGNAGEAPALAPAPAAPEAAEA

[2] = biological target: T2, PprA (Deinococcus radiodurans R1 (ATCC 13939), UniProt O32504 1-300); assay: EMSA; PprA 2 ug; EMSA: 0.2 pmol 32P probe in 10 ul, 10 mM Tris-HCl pH 7.5, 50 mM NaCl, 1 mM DTT, 10 min, 37 C; 12.5% native PAGE; details: protein: recombinant; tags: His-tag removed with Factor Xa (pET28a); label: 32P (polynucleotide kinase, 5' end)
T2 sequence: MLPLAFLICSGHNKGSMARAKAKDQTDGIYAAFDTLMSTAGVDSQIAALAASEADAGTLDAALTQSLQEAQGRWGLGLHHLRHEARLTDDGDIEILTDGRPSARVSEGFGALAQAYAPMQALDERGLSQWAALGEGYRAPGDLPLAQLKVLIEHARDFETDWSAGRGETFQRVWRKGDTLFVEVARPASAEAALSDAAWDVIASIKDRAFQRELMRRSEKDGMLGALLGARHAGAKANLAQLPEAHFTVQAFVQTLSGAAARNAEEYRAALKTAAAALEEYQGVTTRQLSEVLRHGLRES

[3] = biological target: T2, PprA; assay: EMSA; PprA 2 ug; band distinct from DrRecA-DNA; EMSA: 0.2 pmol 32P probe in 10 ul, 10 mM Tris-HCl pH 7.5, 50 mM NaCl, 1 mM DTT, 10 min, 37 C; 12.5% native PAGE; details: protein: recombinant; tags: His-tag removed with Factor Xa (pET28a); label: 32P (polynucleotide kinase, 5' end); blunt
[4] = biological target: T3, Recombinant DrRecA, purified (D. radiodurans, UniProt P42443 1-363); assay: cross-linking; both proteins (approx. 5 μg each) mixed in HEPES buffer pH 7.6 for 10 min, 0.5% glutaraldehyde for 10 min, SDS-PAGE; with or without 1 kb dsDNA, DNase treatment; details: both partners purified
T3 construct: RecA of Deinococcus radiodurans, from plasmid pETrecA constructed earlier (Rajpurohit et al., 2016); His tag removed with Factor-Xa; also called pETrecA; source: E. coli BL21(DE3) pLysS, purified (Ni-chelating Sepharose, Q-sepharose, Heparin, Superdex-200)
T3 sequence (looked up): T1 sequence

TAATACAAAATAAGTAAATGAATAAACAGAGAAAATAAAG (ssDNA) [Oligo40-F 40-mer ssDNA]: binds [1]; no binding [2].

B1: Oligo40-F/Oligo40-R 40-mer dsDNA (dsDNA)
DNA 1: TAATACAAAATAAGTAAATGAATAAACAGAGAAAATAAAG
DNA 2: CTTTATTTTCTCTGTTTATTCATTTACTTATTTTGTATTA
B1: binds [3]; binds ([1]; blunt).

B2: Recombinant PprA, wild type, purified (natural protein, D. radiodurans, UniProt O32504 1-300, looked up)
chain: T2 sequence
notes: PprA of Deinococcus radiodurans, from plasmid pETpprA constructed earlier (Rajpurohit and Misra, 2013); His tag removed with Factor-Xa; also called PprA^wt; pETpprA; source: E. coli BL21(DE3) pLysS, purified (Ni-chelating Sepharose, Q-sepharose, Heparin, Superdex-200)
B2: binds [4].

B3: PprA R166A mutant (natural protein, D. radiodurans, UniProt O32504 1-300, looked up)
chain: T2 sequence with R166A
notes: PprA of Deinococcus radiodurans with R166A, made with a site-directed mutagenesis kit
B3: binds [4].

B4: PprA R212A mutant (natural protein, D. radiodurans, UniProt O32504 1-300, looked up)
chain: T2 sequence with R212A
notes: PprA of Deinococcus radiodurans with R212A, made with a site-directed mutagenesis kit; also called oligomer mutant
B4: binds [4].
